Measurements: patent publication US20110294738A1, “PTHR1 RECEPTOR COMPOUNDS” (priority 2008, published 2011)
* marks the point of attachment. Palmitoyl = CCCCCCCCCCCCCCCC(=O)*

Target: PTHR1 receptor
Sequence (P25961 whole entry): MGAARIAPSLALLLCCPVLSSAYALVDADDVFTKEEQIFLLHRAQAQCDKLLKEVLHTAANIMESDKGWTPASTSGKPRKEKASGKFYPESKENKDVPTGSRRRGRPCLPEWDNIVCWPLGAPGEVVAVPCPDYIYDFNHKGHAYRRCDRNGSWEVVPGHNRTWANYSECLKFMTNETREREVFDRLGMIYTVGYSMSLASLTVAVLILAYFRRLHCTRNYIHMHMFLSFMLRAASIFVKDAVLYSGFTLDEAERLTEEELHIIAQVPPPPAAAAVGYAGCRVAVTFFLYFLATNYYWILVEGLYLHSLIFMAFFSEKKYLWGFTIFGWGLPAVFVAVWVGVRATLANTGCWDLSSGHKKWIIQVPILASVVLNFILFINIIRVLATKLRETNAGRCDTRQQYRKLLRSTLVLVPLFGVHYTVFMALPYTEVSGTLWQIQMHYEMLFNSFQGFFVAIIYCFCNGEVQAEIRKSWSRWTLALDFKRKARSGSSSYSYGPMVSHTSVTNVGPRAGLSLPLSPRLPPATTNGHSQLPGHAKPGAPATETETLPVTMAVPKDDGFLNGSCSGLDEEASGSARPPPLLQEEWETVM

Binder | Fold Shift of EC50 [fold] | Inhibition of Maximal Response
Palmitoyl-RETNAGRSDTRQQYRKLL-NH2 (SMILES CCCCCCCCCCCCCCCC(=O)N[C@@H](CCCNC(=N)N)C(=O)N[C@@H](CCC(=O)O)C(=O)N[C@H](C(=O)N[C@@H](CC(N)=O)C(=O)N[C@@H](C)C(=O)NCC(=O)N[C@@H](CCCNC(=N)N)C(=O)N[C@@H](CO)C(=O)N[C@@H](CC(=O)O)C(=O)N[C@H](C(=O)N[C@@H](CCCNC(=N)N)C(=O)N[C@@H](CCC(N)=O)C(=O)N[C@@H](CCC(N)=O)C(=O)N[C@@H](Cc1ccc(O)cc1)C(=O)N[C@@H](CCCNC(=N)N)C(=O)N[C@@H](CCCCN)C(=O)N[C@@H](CC(C)C)C(=O)N[C@@H](CC(C)C)C(N)=O)[C@@H](C)O)[C@@H](C)O) [Compound 59] | 5.2 | 3%
Palmitoyl-RQQYRKLLKSTL-NH2 (SMILES CCCCCCCCCCCCCCCC(=O)N[C@@H](CCCNC(=N)N)C(=O)N[C@@H](CCC(N)=O)C(=O)N[C@@H](CCC(N)=O)C(=O)N[C@@H](Cc1ccc(O)cc1)C(=O)N[C@@H](CCCNC(=N)N)C(=O)N[C@@H](CCCCN)C(=O)N[C@@H](CC(C)C)C(=O)N[C@@H](CC(C)C)C(=O)N[C@@H](CCCCN)C(=O)N[C@@H](CO)C(=O)N[C@H](C(=O)N[C@@H](CC(C)C)C(N)=O)[C@@H](C)O) [Compound 57] | 15.6 | -38.8%
Palmitoyl-RETNAGRSDTRQQYRK-NH2 (SMILES CCCCCCCCCCCCCCCC(=O)N[C@@H](CCCNC(=N)N)C(=O)N[C@@H](CCC(=O)O)C(=O)N[C@H](C(=O)N[C@@H](CC(N)=O)C(=O)N[C@@H](C)C(=O)NCC(=O)N[C@@H](CCCNC(=N)N)C(=O)N[C@@H](CO)C(=O)N[C@@H](CC(=O)O)C(=O)N[C@H](C(=O)N[C@@H](CCCNC(=N)N)C(=O)N[C@@H](CCC(N)=O)C(=O)N[C@@H](CCC(N)=O)C(=O)N[C@@H](Cc1ccc(O)cc1)C(=O)N[C@@H](CCCNC(=N)N)C(=O)N[C@@H](CCCCN)C(N)=O)[C@@H](C)O)[C@@H](C)O) [Compound 60] | 3.3 | 4.3%

Now from value to binder:

Fold Shift of EC50 [fold] | Inhibition of Maximal Response | Binder
1.9 | -30.4% | Palmitoyl-DTRQQYRKLLKSTL-NH2 (SMILES CCCCCCCCCCCCCCCC(=O)N[C@@H](CC(=O)O)C(=O)N[C@H](C(=O)N[C@@H](CCCNC(=N)N)C(=O)N[C@@H](CCC(N)=O)C(=O)N[C@@H](CCC(N)=O)C(=O)N[C@@H](Cc1ccc(O)cc1)C(=O)N[C@@H](CCCNC(=N)N)C(=O)N[C@@H](CCCCN)C(=O)N[C@@H](CC(C)C)C(=O)N[C@@H](CC(C)C)C(=O)N[C@@H](CCCCN)C(=O)N[C@@H](CO)C(=O)N[C@H](C(=O)N[C@@H](CC(C)C)C(N)=O)[C@@H](C)O)[C@@H](C)O) [Compound 56]
17.7 | 0.0367 | Palmitoyl-RETNAGRSDTRQQYRKLLFS-NH2 (SMILES CCCCCCCCCCCCCCCC(=O)N[C@@H](CCCNC(=N)N)C(=O)N[C@@H](CCC(=O)O)C(=O)N[C@H](C(=O)N[C@@H](CC(N)=O)C(=O)N[C@@H](C)C(=O)NCC(=O)N[C@@H](CCCNC(=N)N)C(=O)N[C@@H](CO)C(=O)N[C@@H](CC(=O)O)C(=O)N[C@H](C(=O)N[C@@H](CCCNC(=N)N)C(=O)N[C@@H](CCC(N)=O)C(=O)N[C@@H](CCC(N)=O)C(=O)N[C@@H](Cc1ccc(O)cc1)C(=O)N[C@@H](CCCNC(=N)N)C(=O)N[C@@H](CCCCN)C(=O)N[C@@H](CC(C)C)C(=O)N[C@@H](CC(C)C)C(=O)N[C@@H](Cc1ccccc1)C(=O)N[C@@H](CO)C(N)=O)[C@@H](C)O)[C@@H](C)O) [Compound 58]
